According to publication PMC8565321:

Target: BLM (UniProt P54132)
Assay: co-IP and western blot
Conditions: reference: wild type USP37; sites S114

binding against the reference: weaker
Substance: USP37 (from UniProt Q86T82) S114A
